Results taken from patent publication US20060246471A1 (published 2006).
Blank lines part the entries; values can stand above or below the binder they belong to.

B3: MLXBIR3SG (ML-IAP chimera: ML-IAP framework with XIAP-BIR3 residues 336-348 in place of 160-179, and S150G) (other)
chain: MGSSHHHHHHSSGLVPRGSHMLETEEEEEEGAGATLSRGPAFPGMGSEELRLASFYDWPLTAEVPPELLAAAGFFHTGHQDKVRCFFCYGGLQSWKRGDDPWTEHAKWFPGCQFLLRSKGQEYINNIHLTHSL
notes: also called ML-IAP-BIR/XIAP-BIR3 chimera protein; His6-tagged MLXBIR3SG

Assays:
[1] = biological target: T1, ML-IAP-BIR (amino acids 63-179 of accession number BIR7_HUMAN), bacterially expressed from pET15b (human, UniProt Q96CA5 63-179); assay: fluorescence polarization competition against Hid-FAM probe
T1 construct: range 63-179; Purified protein used in the fluorescence polarization assays; also called MLBIR; wild-type ML-IAP-BIR; not shown: N-terminal His6-tag from the pET15b vector
T1 sequence (looked up): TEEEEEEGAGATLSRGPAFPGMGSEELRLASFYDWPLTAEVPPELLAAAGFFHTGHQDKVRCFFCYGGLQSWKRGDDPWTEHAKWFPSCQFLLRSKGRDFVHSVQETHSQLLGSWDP
Protocol: (§1) Samples were read after a 10-minute incubation. Fluorescence polarization values were plotted as a function of the antagonist concentration, and the IC₅₀ values were obtained by fitting the data to a 4-parameter equation using Kaleidagraph™ software (Synergy software, Reading, Pa.). Inhibition constants (Kᵢ) for the antagonists were determined from the IC₅₀ values (Keating et al., (2000) Putting the pieces together: contribution of fluorescence polarization assays to small-molecule lead optimization. Proceedings of SPIE: In-Vitro Diagnostic Instrumentation.).

[2] = biological target: T2, MLBIR-Q (C-terminally truncated version of ML-IAP-BIR with the same number of amino acids as MLXBIR3 and … (human, UniProt Q96CA5 63-172)); assay: as above
T2 construct: range 63-172; also called C-terminal truncated wild type; not shown: N-terminal His6-tag from the pET15b vector
T2 sequence (looked up): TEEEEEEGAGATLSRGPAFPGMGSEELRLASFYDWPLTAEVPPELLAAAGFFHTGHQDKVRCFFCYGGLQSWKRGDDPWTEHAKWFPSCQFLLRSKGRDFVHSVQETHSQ
Protocol: as §1

[3] = biological target: B3; assay: as above
Protocol: as §1

[4] = biological target: T3, XIAP-BIR3 (third BIR of XIAP, residues 252-348) (human, UniProt P98170 252-348); assay: as above
T3 construct: range 252-348; No tags are stated; also called XIAP-BIR3 protein
Protocol: as §1

[5] = biological target: B3; assay: TR-FRET competition against biotinylated Smac peptide AVPIAQK-biotin on His6-tagged MLXBIR3SG
Protocol: Time-Resolved Fluorescence Resonance Energy Transfer (TR-FRET) competition experiments (Kolb et al., (1996) J. Biomol. Screening 1 (4): 203-210) were performed on the Wallac Victor2 Multilabeled Counter Reader™ (Perkin Elmer Life and Analytical Sciences, Inc.). […] Alternatively, this cocktail can be made using optimized concentrations of europium-labeled anti-His₆ antibody (Perkin Elmer) instead of the anti-His₆ antibody-allophycocyanin conjugate, and streptavidin-allophycocyanin conjugate (Perkin Elmer) instead of europium-labeled streptavidin. The reagent cocktail was incubated at room temperature for 30 minutes. […] After a 90 minute incubation at room temperature, the fluorescence was read with filters for the excitation of europium (340 nm) and for the emission wavelengths of europium (615 nm) and allophycocyanin (665 nm). Data are calculated as a ratio of the emission signal of allophycocyanin at 665 nm to the emission signal of europium at 615 nm (these ratios are multiplied by a factor of 10,000 for ease of data manipulation). The resulting values were plotted as a function of antagonist concentration and fit to a 4-parameter equation using Kaleidagraph™ software (Synergy Software, Reading, Pa.). Indications of antagonist potency were determined from the IC₅₀ values.

[6] = biological target: ΔCARD human caspase 9 (lacking the first 138 residues) with Ala substitutions at residues 304 to 306 (human) (UniProt P55211); assay: caspase-9 enzyme inhibition
[7] = biological target: T4, 5-carboxyflourescein-conjugated AVPFAK(5-FAM)K (Hid-FAM) (5-carboxyfluorescein (5-FAM) on Lys 6); assay: fluorescence polarization, BIR protein titrated onto 5 nM Hid-FAM
T4 construct: also called HID-FAM probe; Hid-based 5-carboxyfluorescein-labeled peptide
Protocol: Polarization experiments were performed on an Analyst™ HT 96-384 (Molecular Devices Corp.). […] The reactions were read after an incubation time of 10 minutes at room temperature with standard cut-off filters for the fluorescein fluorophore (λₑₓ=485 nm; λₑₘ=530 nm) in 96-well black HE96 plates (Molecular Devices Corp.). Fluorescence polarization values were plotted as a function of the protein concentration, and the EC₅₀ values were obtained by fitting the data to a 4-parameter equation using Kaleidagraph™ software (Synergy software, Reading, Pa.). The apparent Kd values were determined from the EC₅₀ values.

[8] = biological target: ΔCARD human caspase 9 (lacking the first 138 residues) with Ala substitutions at residues 304 to 306 (human) (UniProt P55211); assay: caspase-9 enzyme inhibition (Ac-LEHD-AFC hydrolysis), Ki(app); too low to measure accurately

ΔCARD human caspase 9 (lacking the first 138 residues) with Ala substitutions at residues 304 to 306 (human), sequence (P55211 139-416, stated change not applied): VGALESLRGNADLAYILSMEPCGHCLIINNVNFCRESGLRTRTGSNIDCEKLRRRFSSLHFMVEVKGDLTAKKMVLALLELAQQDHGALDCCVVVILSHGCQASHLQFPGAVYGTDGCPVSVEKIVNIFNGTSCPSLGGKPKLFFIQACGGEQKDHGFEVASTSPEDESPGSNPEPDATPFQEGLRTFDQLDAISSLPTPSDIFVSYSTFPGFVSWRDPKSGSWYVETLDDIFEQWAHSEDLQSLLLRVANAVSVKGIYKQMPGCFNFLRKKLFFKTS
T3 sequence (P98170 252-348 limits assumed): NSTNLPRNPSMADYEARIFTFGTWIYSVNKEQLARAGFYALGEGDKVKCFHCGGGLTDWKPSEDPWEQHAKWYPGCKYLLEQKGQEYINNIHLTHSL

- Ki [1]: 26 nM
- Ki [2]: 54 nM
- Ki [3]: 59 nM
- Ki [4]: 320 nM
B1: wild-type mature Smac protein (amino acids 56-239 of Smac/DIABLO, C-terminal His6 fusion) (other, human, UniProt Q9NR28 56-239, looked up)
chain: AVPIAQKSEPHSLSSEALMRRAVSLVTDSTSTFLSQTTYALIEAITEYTKAVYTLTSLYRQYTSLLGKMNSEEEDEVWQVIIGARAEMTSKHQEYLKLETTWMTAVGLSEMAAEAAYQTGADQASITARNHIQLVKLQVEEVHQLSRKAETKLAEAQIEELRQKTQEEGEERAESEQEAYLRED
notes: range 56-239; not shown: C-terminal His6 fusion from pet21b+

- IC50 [5]: 150 nM
Binder: AVPW (also called AVPW (Hid)) [AVPW peptide]

- fold lower potency for inhibition of caspase-9 activity relative to XIAP [6]: 300 fold
B2: full-length ML-IAP plus a N-terminal His6-tag (protein, human, UniProt Q96CA5 1-298, looked up, not shown: small tags and cut ends)
chain: MGPKDSAKCLHRGPQPSHWAAGDGPTQERCGPRSLGSPVLGLDTCRAWDHVDGQILGQLRPLTEEEEEEGAGATLSRGPAFPGMGSEELRLASFYDWPLTAEVPPELLAAAGFFHTGHQDKVRCFFCYGGLQSWKRGDDPWTEHAKWFPSCQFLLRSKGRDFVHSVQETHSQLLGSWDPWEEPEDAAPVAPSVPASGYPELPTPRREVQSESAQEPGGVSPAEAQRAWWVLEPPGARDVEAQLRRLQEERTCKVCLDRAVSIVFVPCGHLVCAECAPGLQLCPICRAPVRSRVRTFLS

Binder: B3
- Kd [7]: 30 nM
- Ki [8]: < 1 nM
